Source: publication PMC7854685, “Histone Parylation factor 1 contributes to the inhibition of PARP1 by cancer drugs”

Legend:
PARP2;HPF1 = PARP2;HPF1 (Homo sapiens?;Homo sapiens?, UniProt Q9UGN5;Q9NWY4 1-583;1-346, |); assay: fluorescence polarization (release of labelled DNA on autoPARylation); 2 uM HPF1, PARPi; DNA released by 2 mM NAD+; 50 mM Tris-HCl pH 8.0, 50 mM NaCl, 1 mM MgCl2, 0.1 mM EDTA, 0.01% IGEPAL; temperature not stated; settings: protein: recombinant;recombinant; (nickel column); copies: 1;1; label: fluorescein (5') in the FP DNA-release assay; blunt
PARP2;HPF1, sequence (Q9UGN5 whole entry, chain 1 of 2): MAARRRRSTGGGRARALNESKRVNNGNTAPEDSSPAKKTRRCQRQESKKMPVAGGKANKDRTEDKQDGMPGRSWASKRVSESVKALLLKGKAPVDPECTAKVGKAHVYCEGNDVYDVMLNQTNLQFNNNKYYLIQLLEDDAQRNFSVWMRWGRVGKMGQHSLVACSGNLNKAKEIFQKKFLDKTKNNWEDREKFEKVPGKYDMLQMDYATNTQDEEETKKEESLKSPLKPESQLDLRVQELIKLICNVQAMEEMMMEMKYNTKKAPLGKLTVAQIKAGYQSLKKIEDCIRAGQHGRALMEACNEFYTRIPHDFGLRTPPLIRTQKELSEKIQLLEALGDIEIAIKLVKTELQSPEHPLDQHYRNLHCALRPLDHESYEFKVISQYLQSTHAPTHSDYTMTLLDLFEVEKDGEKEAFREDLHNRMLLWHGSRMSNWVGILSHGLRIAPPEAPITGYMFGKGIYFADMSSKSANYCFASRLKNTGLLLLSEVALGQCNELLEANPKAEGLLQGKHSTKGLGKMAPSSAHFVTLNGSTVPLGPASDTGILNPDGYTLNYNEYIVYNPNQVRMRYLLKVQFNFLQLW
PARP2;HPF1, sequence (Q9NWY4 whole entry, chain 2 of 2): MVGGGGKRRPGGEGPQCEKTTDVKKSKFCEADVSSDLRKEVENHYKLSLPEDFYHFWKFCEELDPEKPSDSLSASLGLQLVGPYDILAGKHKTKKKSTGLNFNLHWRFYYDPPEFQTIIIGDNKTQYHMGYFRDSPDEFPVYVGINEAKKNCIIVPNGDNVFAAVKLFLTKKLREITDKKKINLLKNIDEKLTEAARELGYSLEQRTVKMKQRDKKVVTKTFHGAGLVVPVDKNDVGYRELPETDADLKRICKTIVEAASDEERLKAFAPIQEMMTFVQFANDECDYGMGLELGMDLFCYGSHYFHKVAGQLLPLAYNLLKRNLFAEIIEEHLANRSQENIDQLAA

PARP1;HPF1 = PARP1;HPF1 (Homo sapiens?;Homo sapiens?, UniProt P09874;Q9NWY4 1-1014;1-346, |); assay: as above; settings: protein: recombinant;recombinant; (nickel column); copies: 1;1; label: fluorescein (5') in the FP DNA-release assay; blunt
PARP1;HPF1, sequence (P09874 whole entry, chain 1 of 2): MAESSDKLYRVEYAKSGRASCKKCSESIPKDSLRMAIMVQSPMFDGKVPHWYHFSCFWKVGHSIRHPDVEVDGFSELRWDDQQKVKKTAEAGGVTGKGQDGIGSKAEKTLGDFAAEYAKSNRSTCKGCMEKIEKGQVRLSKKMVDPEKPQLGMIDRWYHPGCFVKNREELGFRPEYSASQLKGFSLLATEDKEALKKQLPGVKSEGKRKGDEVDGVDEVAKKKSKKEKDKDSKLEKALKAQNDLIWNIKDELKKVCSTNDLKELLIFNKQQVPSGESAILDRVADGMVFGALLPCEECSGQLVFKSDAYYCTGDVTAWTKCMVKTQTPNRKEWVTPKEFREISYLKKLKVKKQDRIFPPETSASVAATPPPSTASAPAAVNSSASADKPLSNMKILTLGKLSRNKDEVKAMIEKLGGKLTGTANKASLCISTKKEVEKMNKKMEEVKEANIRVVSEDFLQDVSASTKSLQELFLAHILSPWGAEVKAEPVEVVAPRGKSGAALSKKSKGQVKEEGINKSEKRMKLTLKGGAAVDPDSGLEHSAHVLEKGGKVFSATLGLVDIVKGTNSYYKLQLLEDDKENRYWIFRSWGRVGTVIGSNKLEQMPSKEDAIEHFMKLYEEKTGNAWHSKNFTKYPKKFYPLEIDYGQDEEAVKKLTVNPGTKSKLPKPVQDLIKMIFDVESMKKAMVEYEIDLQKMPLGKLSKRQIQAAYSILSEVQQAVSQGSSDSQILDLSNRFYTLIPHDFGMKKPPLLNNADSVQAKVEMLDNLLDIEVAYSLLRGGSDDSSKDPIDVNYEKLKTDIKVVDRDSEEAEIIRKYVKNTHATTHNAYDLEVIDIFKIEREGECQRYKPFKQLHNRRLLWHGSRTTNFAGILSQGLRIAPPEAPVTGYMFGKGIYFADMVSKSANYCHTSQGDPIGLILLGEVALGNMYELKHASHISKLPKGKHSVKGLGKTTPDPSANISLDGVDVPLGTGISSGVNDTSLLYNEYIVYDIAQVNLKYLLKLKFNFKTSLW
PARP1;HPF1, sequence (Q9NWY4 whole entry, chain 2 of 2): as the sequence (Q9NWY4 whole entry, chain 2 of 2) above

PARP1 = PARP1 (UniProt P09874 1-1014); assay: fluorescence polarization (release of labelled DNA on autoPARylation); PARPi present or absent; DNA released by 2 mM NAD+, retained without NAD+; 50 mM Tris-HCl pH 8.0, 50 mM NaCl, 1 mM MgCl2, 0.1 mM EDTA, 0.01% IGEPAL; temperature not stated; settings: protein: recombinant; label: fluorescein (5') in the FP DNA-release assay; blunt
PARP1, sequence (P09874 whole entry): as the sequence (P09874 whole entry, chain 1 of 2) above

PARP2 = PARP2 (UniProt Q9UGN5 1-583); assay: as above; settings: protein: recombinant; label: fluorescein (5') in the FP DNA-release assay; blunt
PARP2, sequence (Q9UGN5 whole entry): as the sequence (Q9UGN5 whole entry, chain 1 of 2) above

Measured: binding result

B1: p18mer (dsDNA)
DNA 1: GGGTTGCGGCCGCTTGGG
DNA 2: CCCAAGCGGCCGCAACCC
modifications: 5'-phosphate
binds: PARP2;HPF1 | PARP1;HPF1 | PARP1 | PARP2
